US20250084174A1 (AstraZeneca / MedImmune, published 2025)

Experiments:
[1] = target: T1, cynomolgus CCR9 (cynomolgus, UniProt Q0H741 1-369); experiment: binding to HEK cells expressing cynomolgus CCR9, fluorescence counts (FL1 Counts) against Log M
T1 construct: Overexpressed on HEK cells, or endogenous on cynomolgus PBMC; also called cynomolgus CCR9A; Cyno HEK
T1 sequence: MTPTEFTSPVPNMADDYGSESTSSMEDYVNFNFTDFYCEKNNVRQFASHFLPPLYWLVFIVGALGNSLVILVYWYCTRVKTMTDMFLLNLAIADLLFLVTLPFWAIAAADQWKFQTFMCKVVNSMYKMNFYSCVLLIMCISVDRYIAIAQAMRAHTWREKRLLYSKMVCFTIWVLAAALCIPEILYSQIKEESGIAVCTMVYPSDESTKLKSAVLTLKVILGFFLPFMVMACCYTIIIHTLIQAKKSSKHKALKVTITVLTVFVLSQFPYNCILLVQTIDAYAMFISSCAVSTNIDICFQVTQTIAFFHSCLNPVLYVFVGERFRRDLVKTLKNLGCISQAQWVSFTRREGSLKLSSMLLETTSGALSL

[2] = target: T2, CCR5 (UniProt P51681 1-352, limits assumed); experiment: binding to cells expressing CCR5, fluorescence counts (FL1 Counts) against Log M
T2 construct: whole, on cells; The cell line is not described
T2 sequence (P51681 whole entry): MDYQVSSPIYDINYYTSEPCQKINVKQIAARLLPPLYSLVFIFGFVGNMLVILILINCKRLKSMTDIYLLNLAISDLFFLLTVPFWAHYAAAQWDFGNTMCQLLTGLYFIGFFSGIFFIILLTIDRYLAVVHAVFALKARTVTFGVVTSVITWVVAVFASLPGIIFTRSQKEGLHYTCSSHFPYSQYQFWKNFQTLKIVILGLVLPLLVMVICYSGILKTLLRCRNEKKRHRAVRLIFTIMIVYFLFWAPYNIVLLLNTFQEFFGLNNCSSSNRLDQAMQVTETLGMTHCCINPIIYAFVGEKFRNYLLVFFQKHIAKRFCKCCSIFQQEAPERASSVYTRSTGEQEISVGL

[3] = target: T3, human CCR9B (human, UniProt P51686 13-369); experiment: binding to HEK cells expressing human CCR9B, fluorescence counts (FL1 Counts) against Log M
T3 construct: Overexpressed on HEK cells; also called Hu B HEK; hCCR9 isoform B
T3 sequence: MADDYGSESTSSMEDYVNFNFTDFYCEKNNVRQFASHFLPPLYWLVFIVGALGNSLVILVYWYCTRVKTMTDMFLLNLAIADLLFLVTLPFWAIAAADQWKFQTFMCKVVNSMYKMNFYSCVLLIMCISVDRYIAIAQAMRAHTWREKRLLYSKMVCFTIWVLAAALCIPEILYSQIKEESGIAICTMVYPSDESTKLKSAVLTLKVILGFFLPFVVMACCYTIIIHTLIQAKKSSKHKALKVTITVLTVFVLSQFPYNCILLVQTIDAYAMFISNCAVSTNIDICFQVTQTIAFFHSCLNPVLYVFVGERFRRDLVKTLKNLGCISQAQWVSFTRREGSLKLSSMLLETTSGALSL

[4] = target: T4, CXCR2 (UniProt P25025 1-360, limits assumed); experiment: binding to cells expressing CXCR2, fluorescence counts (FL1 Counts) against Log M
T4 construct: whole, on cells; The cell line is not described
T4 sequence (looked up): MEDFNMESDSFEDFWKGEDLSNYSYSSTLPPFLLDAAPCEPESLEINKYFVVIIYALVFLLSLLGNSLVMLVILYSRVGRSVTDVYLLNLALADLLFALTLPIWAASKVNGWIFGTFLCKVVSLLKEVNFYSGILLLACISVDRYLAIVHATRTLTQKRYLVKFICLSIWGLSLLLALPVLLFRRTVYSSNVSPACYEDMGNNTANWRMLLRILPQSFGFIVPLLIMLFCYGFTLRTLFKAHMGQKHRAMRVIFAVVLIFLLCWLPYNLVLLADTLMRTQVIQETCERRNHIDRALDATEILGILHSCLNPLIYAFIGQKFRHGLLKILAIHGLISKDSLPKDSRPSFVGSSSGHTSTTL

[5] = target: T5, CXCR1 (UniProt P25024 1-350, limits assumed); experiment: binding to cells expressing CXCR1, fluorescence counts (FL1 Counts) against Log M
T5 construct: whole, on cells; The cell line is not described
T5 sequence (looked up): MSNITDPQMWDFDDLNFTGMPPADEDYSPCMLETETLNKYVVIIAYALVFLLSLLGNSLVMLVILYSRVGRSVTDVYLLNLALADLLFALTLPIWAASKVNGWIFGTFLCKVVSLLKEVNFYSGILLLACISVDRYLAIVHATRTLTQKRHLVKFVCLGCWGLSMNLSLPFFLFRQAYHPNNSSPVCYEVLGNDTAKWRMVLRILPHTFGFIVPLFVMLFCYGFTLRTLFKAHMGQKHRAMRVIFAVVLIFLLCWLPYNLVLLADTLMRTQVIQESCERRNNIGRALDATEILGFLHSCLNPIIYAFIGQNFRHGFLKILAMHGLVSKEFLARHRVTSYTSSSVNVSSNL

[6] = target: T6, CCR8 (UniProt P51685 1-355, limits assumed); experiment: binding to cells expressing CCR8, fluorescence counts (FL1 Counts) against Log M
T6 construct: whole, on cells; The cell line is not described
T6 sequence (P51685 whole entry): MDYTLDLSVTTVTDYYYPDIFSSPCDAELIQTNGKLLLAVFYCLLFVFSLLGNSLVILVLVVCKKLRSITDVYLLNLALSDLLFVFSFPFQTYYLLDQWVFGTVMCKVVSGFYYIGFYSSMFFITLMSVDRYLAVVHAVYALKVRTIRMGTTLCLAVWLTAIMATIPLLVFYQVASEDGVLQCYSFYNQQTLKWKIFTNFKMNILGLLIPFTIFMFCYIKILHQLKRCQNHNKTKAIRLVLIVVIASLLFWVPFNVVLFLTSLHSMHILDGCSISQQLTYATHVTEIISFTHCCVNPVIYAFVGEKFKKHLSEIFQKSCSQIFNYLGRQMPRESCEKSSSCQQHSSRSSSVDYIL

EC50 (read off the curve) [1]: ~0.4 nM | binding result [3]: binds
B1: humanised AB1020243 afuc (AB1020243-fgl) (antibody, V domains shown)
VH: QVQLVQSGAEVKKPGASVKVSCKASGYTFTSYWMHWVRQAPGQGLEWIGVIYPGNSDTRYNQKFKGRVTITRDTSASTAYMELSSLRSEDTAVYYCTRDYYSNYVYYYAMDYWGQGTTVTVSS
VL: DIVMTQTPLSLPVTPGEPASISCRSSQSLVHSNGNTYLHWYLQKPGQSPQLLIYKVSNRFSGVPDRFSGSGSGTDFTLKISRVEAEDVGVYYCSQSTHVPWTFGQGTKLEIK
modifications: afucosylated form; in the LigandTracer assay DyLight 650 Maleimide on an engineered cysteine residue in the CH2 region
notes: Human IgG1 format is stated for LigandTracer; Full chains are not tied to the tested lot
binding result [2]: no binding (tested: Log M about -6.5 (about 3e-7 M)) | binding result [4]: no binding (tested: Log M about -6.5 (about 3e-7 M)) | binding result [5]: no binding (tested: Log M about -6.5 (about 3e-7 M)) | binding result [6]: no binding (tested: Log M about -6.5 (about 3e-7 M))
